For this assay, the target named is HER2 (UniProt P04626). Description: SPR. In general terms: In SPR one partner is held on a chip, and binding of the other changes the refractive index at the surface.

The Kd is the free concentration of one partner at which half of the binding sites on the other are occupied at equilibrium, for simple one-to-one binding. Lower therefore signals tighter binding.

Substance “4D5 Fab modified to contain Q39E in VH, Q38K in VL, S183K in the CH1, and V133E in the CL” displayed a dissociation constant Kd of 750 pM.

(Values after patent US20220409725A1.)
